Consider four molecules from US11001824 (UNIVERSITY OF GEORGIA RESEARCH FOUNDATION, dated 2021).

Positions count from the first letter of the chain named. Names and notes keep the numbering of the source.

Test [1] has as its target T1, denatured bovine pancreatic Ribonuclease B (bovine, UniProt P61823 27-150).
T1 construct: mature; also called dRNase B; denatured RNase B
T1 sequence: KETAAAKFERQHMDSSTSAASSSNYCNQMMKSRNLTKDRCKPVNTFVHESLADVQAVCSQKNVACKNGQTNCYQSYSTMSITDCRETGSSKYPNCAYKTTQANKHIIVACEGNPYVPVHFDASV
The test can be described thus: SPR (Biacore 3000), dRNase B immobilised on CM5; calculated from KD.
Description: Steady-state binding kinetics using a bimolecular interaction model was determined using a Biacore 3000 instrument.
(§1) Using a similar strategy, denatured RNase B was immobilized on a CM-5 sensor chip and serially-diluted concentrations of wtPNGase F, D60A, R911, and R911 C60A were passed over the sensor surface, while binding kinetics were measured.
Dissociation (K_D) and off-rate constants ($koff$) for the interaction between denatured glycoprotein RNase B (dRNase B) with PNGase F mutagenized clones as determined by surface plasmon resonance. Kinetic data s as determined with dRNase B as immobilized ligand on CM5 sensor chip and PNGase F clone analytes.

For test [2], the target named is T1, denatured bovine pancreatic …. The test can be described thus: experimental binding free energy from SPR with dRNase B, relative to D60A.
Test [3] shares this target. Nature of the test: SPR (Biacore 3000), dRNase B immobilised on CM5, steady state. (In SPR one partner is held on a chip, and binding of the other changes the refractive index at the surface.)
Description: A high-density surface was prepared with sufficient ligand coupling to yield a theoretical $RMAX$ of ~3000 RU. To assess the impact of the D60C mutation in R911 relative to wtPNGase F, the R911 C60A mutant was also evaluated. Steady-state binding kinetics using a bimolecular interaction model was determined using a Biacore 3000 instrument.
as §1
Dissociation (K_D) and off-rate constants ($koff$) for the interaction between denatured glycoprotein RNase B (dRNase B) with PNGase F mutagenized clones as determined by surface plasmon resonance.
Test [4] shares this target. Nature of the test: SPR (Biacore 3000), dRNase B immobilised on CM5.
Test [5] deals with T2, RNase B deglycosylated with PNGase F (bovine, UniProt P61823 27-150).
T2 construct: mature; also called deglycosylated RNase B
T2 sequence: T1 sequence with N34D
Nature of the test: R911 affinity chromatography.

The target of test [6] is T1, denatured bovine pancreatic …. Nature of the test: experimental binding free energy from SPR with denatured RNase B.
In test [7] the target is T3, Histone H2A.x (human, UniProt P16104 2-143).
T3 construct: From MCF7 cell extract
Nature of the test: R911 affinity column, MCF7 cell extract, chitobiose elution, LC-MS/MS.
Description: (§2) Cell extract (100 µg) was loaded onto a R911 affinity column and then competitively eluted with free chitobiose in the binding buffer, instead of the standard elution buffer (FIG. 37).
(§3) Human breast cancer MCF7 cells were cultured in DMEM media supplemented with 10% fetal bovine serum. Cells were passaged and harvested using trypsin-free cell release. Approximately, 2.3 ×10^7 cells were harvested and washed 3× with 10 mL of phosphate buffered saline at 4° C. by centrifugation at 1000×g for 5 minutes. The cell pellet was resuspended in 1.5 mL of filter sterilized cell lysis buffer (10 mM Tris-HCl, pH 7.5, 150 mM NaCl, 1% v/v Nonidet P-40) with EDTA-free protease inhibitor cocktail (Roche Diagnostics, Mannheim, Germany) and incubated on ice for 30 minutes.[17] The cells were ultra-sonicated (Misonix Ultrasonic Liquid Processor Model S-4000) at intervals of 15 seconds for a total of 2 minutes, with a 15 second pause between treatments (30% amplitude). […] The supernatant containing the MCF7 cell extract was stored at −80° C. in 50 µL aliquots. […] An aliquoted MCF7 cell extract stock was thawed on ice and diluted to 1 mg/mL using 10 mM HEPES, 10 mM NaCl, at pH 7.4.
(§4) LC-MS/MS Protein Identification of R911 Lectenz® Affinity Chromatography Eluted Samples MCF7 cell extract and proteins eluted from the R911 Lectenz® affinity column were reduced, alkylated and digested with sequence grade trypsin (Promega) using a standard in-solution digest protocol.[30] The samples were acidified with 1% trifluroacetic acid and desalting was performed using C18 spin columns (Silica C18, The Nest Group, Inc.).

In test [8] the target is T4, Histone H2A type 1-B/E (human).
T4 construct: From MCF7 cell extract; also called H2A1B
The description is as above.
Description: as §2, §3, §4

The target in test [9] is T5, Histone H2A.Z (human).
T5 construct: From MCF7 cell extract
The description is as above.
Description: as §2, §3, §4

The target in test [10] is T6, Histone H2A type 2-C (human).
T6 construct: From MCF7 cell extract; also called H2A2C
The test is described as above.
Description: as §2, §3, §4

T5 sequence (chain, as listed by the source limits assumed): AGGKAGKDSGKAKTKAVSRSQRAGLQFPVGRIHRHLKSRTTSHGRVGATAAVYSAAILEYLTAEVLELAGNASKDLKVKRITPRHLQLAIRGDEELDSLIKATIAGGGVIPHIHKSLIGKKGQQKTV

B1: wild-type PNGase F from Flavobacterium meningosepticum (enzyme)
chain: GIPAPADNTVNIKTFDKVKNAFGDGLSQSAEGTFTFPADVTAVKTIKMFIKNECPNKTCDEWDRYANVYVKNKTTGEWYEIGRFITPYWVGTEKLPRGLEIDVTDFKSLLSGNTELKIYTETWLAKGREYSVDFDIVYGTPDYKYSAVVPVVQYNKSSIDGVPYGKAHTLALKKNIQLPTNTEKAYLRTTISGWGHAKPYDAGSRGCAEWCFRTHTIAINNSNTFQHQLGALGCSANPINNQSPGNWTPDRAGWCPGMAVPTRIDVLNNSLIGSTFSYEYKFQNWTNNGTNGDAFYAISSFVIAKSNTPISAPVVTNLDPHHHHHH
notes: also called wtPNGase F; 1PNF
The term Kd denotes the equilibrium constant for the complex coming apart. A low value points to a tighter complex. By koff is commonly meant a measure of how fast the partners let go of each other. Regarding B1, in [1], the ΔGBIND-EXP was -7.1 kcal/mol. For the same molecule, in test [2], the “ΔΔGBIND-EXP (relative to D60A)” value is 0.5 kcal/mol. The Kd in test [3] came to 6400 nM. This molecule registered a koff in test [4] of 0.01 s⁻¹.

B2: PNGase F clone R911 (D57L, D60C, I156L, G192I, E206S, R248W) (designed binder)
chain: B1 chain with D60L, D63C, I159L, G195I, E209S, R251W
B2: the ΔGBIND-EXP in test [1] was -8.99 kcal/mol. In addition, the “ΔΔGBIND-EXP (relative to D60A)” value in test [2] was -1.9 kcal/mol. The binding result in test [5] was “no binding”; in [7], “binds”; in [8], “binds”; in [9], “binds”; in test [10], “binds”. Further, in [6], the “ΔΔGBIND-EXP (relative to R911 C60A)” value was -1.2 kcal/mol. In test [3], this molecule showed a Kd of 260 nM. Moreover, the “Relative Affinity Enhancement (against D60A)” value (“Relative Affinity Enhancement” for short) in test [4] stood at 10 fold. Besides, the “Relative Off-Rate Enhancement (against D60A)” value (“Relative Off-Rate Enhancement” below) in test [4] was 84 fold. Further, the koff in test [4] turned out to be 0.0051 s⁻¹.

B3: PNGase F clone R911 C60A (D57L, D60A, I156L, G192I, E206S, R248W) (designed binder)
chain: B1 chain with D60L, D63A, I159L, G195I, E209S, R251W
On to B3, for which the ΔGBIND-EXP in [1] is -7.77 kcal/mol. For the same molecule, the “ΔΔGBIND-EXP (relative to D60A)” value in [2] is -0.7 kcal/mol. Also, the Kd in test [3] was 2000 nM. In test [4], the “Relative Affinity Enhancement” value was 1.3 fold, the “Relative Off-Rate Enhancement” value was found to be 35 fold and the koff stood at 0.012 s⁻¹.

B4: PNGase F D60A single point mutant (enzyme)
chain: B1 chain with D63A
notes: also called D60A control clone
Regarding B4, the ΔGBIND-EXP in test [1] is -7.61 kcal/mol. Also, the Kd in test [3] was found to be 2700 nM. Further, in test [4], the “Relative Affinity Enhancement” value was 1 fold, the “Relative Off-Rate Enhancement” value was found to be 1 fold and the koff was 0.43 s⁻¹.
